Source: patent US6183967, “Nucleic acid ligand inhibitors to DNA polymerases” (NeXstar Pharmaceuticals)

Key:
Taq DNA polymerase [1] = molecular target: T1, Taq DNA polymerase (Thermus aquaticus, UniProt P19821 P19821:1-832); test: FP filter; 55C; IT50 44.6C; conditions: tags: rTaq, 94 kDa, Roche Molecular Systems; label: end-labeled
Taq DNA polymerase [2] = molecular target: T1, Taq DNA polymerase; test: FP filter; Tm 51C; conditions: tags: rTaq, 94 kDa, Roche Molecular Systems; stem-loop
Procedure: Room Temperature. To assess the affinity of oligonucleotide libraries and individual ligands the nitrocellulose filter binding technique was used. Briefly, gel-purified ^32P ss-DNA pools labeled at the 5' end were suspended in the binding buffer, heated to 80° C., chilled on ice and then brought to room temperature. The DNA (5–10 pM) was then incubated for 15 minutes at room temperature with varying amounts of the target polymerase in 50 µL of the appropriate binding buffer containing 0.1 µg of tRNA and 0.01% hSA. The DNA concentrations were kept lower than 100 pM to ensure equilibrium in the presence of excess protein concentrations. […] The amount of DNA bound to the filters was quantitated by measuring the radioactivity of the filters by liquid scintillation counting. The quantity of DNA bound to filters in the absence of protein was used for background correction. […]
[1]The boxed region denotes the conserved sequence element with the predicted stem-loop structure identified in the Family I sequences; vertical lines signify Watson-Crick type base pairing; circles show an uncommon G-T base pair. [2]K_d values were measured by the nitrocellulose filter binding technique described in Example 1. [3]Melting transitions (T_m) were measured in a PCR buffer containing 10 mM Tris-HCl, 50 mM KCl, 2 mM MgCl_2, pH 8.3, at a 1° C./min temperature ramp.

Taq DNA polymerase [3] = molecular target: T1, Taq DNA polymerase; test: FP filter; 55C; IT50 52.3C; conditions: tags: rTaq, 94 kDa, Roche Molecular Systems; label: end-labeled
Taq DNA polymerase [4] = molecular target: T1, Taq DNA polymerase; test: FP filter; Tris buffer 55C; 5 pM at 40C; Tricine 4.6 (40C), 36 (55C) pM; IT50 54.8C; conditions: tags: rTaq, 94 kDa, Roche Molecular Systems; label: end-labeled
Procedure: (§1) Binding interactions of individual sequences with Taq polymerase was measured by nitrocellulose filter binding at 55° C. […] Clones 6 (SEQ ID NO:78), 22 (SEQ ID NO:81) and 28 (SEQ ID NO:87) all show high-affinity binding to Taq polymerase at 55° C. as characterized by their K_d values in the low picomolar range.
(§2) The binding analysis shown in FIGS. 4A–E were performed in the Tris buffer at 55° C. […] (Table 7).

Taq DNA polymerase [5] = molecular target: T1, Taq DNA polymerase; test: inhibition; 45C; conditions: tags: rTaq, 94 kDa, Roche Molecular Systems; label: end-labeled
Procedure: (§3) As set forth in Table 12, the $IT50$ values of truncated ligands TQH6-Tr, TQH22-Tr and TQH28-Tr were decreased by 5–9° C. upon truncation.
(§4) Measurement of $IC50$ Values. $IC50$ values (the concentration of inhibitor required to produce 50% of the product in the assay) were obtained using hairpin extension assays. In a typical inhibition assay, a 20 μL reaction contained either 0.25 (0.04) pmoles of Taq polymerase (5 U) (1 U), 0.125 pmoles of Tth polymerase (2.5 U) or 0.05 pmoles of TZ05 polymerase (1 U), oligonucleotide inhibitor (at varying concentrations), […] dNTPs in either Tris or Tricine buffer (Taq and Tth pol) or TZ05 buffer (TZ05 pol). Gel purified, 5'-end-labeled hairpin DNA substrate (DNA-HP; 5'-[…]-3' (SEQ ID NO:6)) was then added to a final concentration of 250 nM and the reactions were incubated for a given time at the desired temperature as indicated in the figure legends (30 minutes for TZ05 pol). The reaction was stopped by adding 5 μL of 0.5 M EDTA (pH 8.0) followed by formamide gel loading buffer. Extension products were resolved on 10% polyacrylamide gels under denaturing conditions and quantitated by phosphorimager. The amount of products formed in the presence of inhibitor was normalized to the product formed in the absence of an inhibitor to obtain the percent of product.

Taq DNA polymerase [6] = molecular target: T1, Taq DNA polymerase; test: FP filter; printed as >>1000; 55C; IT50 <40C; conditions: tags: rTaq, 94 kDa, Roche Molecular Systems; label: end-labeled
Procedure: as §1

Taq DNA polymerase [7] = molecular target: T1, Taq DNA polymerase; test: FP filter; 55C; IT50 53.7C; conditions: tags: rTaq, 94 kDa, Roche Molecular Systems; label: end-labeled
Procedure: as §1

Taq DNA polymerase [8] = molecular target: T1, Taq DNA polymerase; test: inhibition; 45C; IT50 56.1C; conditions: tags: rTaq, 94 kDa, Roche Molecular Systems; label: end-labeled
Procedure: as §3, §4

Taq DNA polymerase [9] = molecular target: T1, Taq DNA polymerase; test: FP filter; Tris buffer 55C; 3.8 pM at 40C; Tricine 5.6 (40C), 18 (55C) pM; IT50 56C; conditions: tags: rTaq, 94 kDa, Roche Molecular Systems; label: end-labeled
Procedure: as §1, §2

Taq DNA polymerase [10] = molecular target: T1, Taq DNA polymerase; test: FP filter; Tris buffer 55C; 5 pM at 40C; Tricine 9.4 (40C), 116 (55C) pM; IT50 52C; conditions: tags: rTaq, 94 kDa, Roche Molecular Systems; label: end-labeled
Procedure: as §1, §2

Taq DNA polymerase [11] = molecular target: T1, Taq DNA polymerase; test: FP filter; 55C; IT50 52C; conditions: tags: rTaq, 94 kDa, Roche Molecular Systems; label: end-labeled
Taq DNA polymerase [12] = molecular target: T1, Taq DNA polymerase; test: FP filter; 55C; IT50 41C; conditions: tags: rTaq, 94 kDa, Roche Molecular Systems; label: end-labeled

T1 sequence (P19821 whole entry, one chain of several): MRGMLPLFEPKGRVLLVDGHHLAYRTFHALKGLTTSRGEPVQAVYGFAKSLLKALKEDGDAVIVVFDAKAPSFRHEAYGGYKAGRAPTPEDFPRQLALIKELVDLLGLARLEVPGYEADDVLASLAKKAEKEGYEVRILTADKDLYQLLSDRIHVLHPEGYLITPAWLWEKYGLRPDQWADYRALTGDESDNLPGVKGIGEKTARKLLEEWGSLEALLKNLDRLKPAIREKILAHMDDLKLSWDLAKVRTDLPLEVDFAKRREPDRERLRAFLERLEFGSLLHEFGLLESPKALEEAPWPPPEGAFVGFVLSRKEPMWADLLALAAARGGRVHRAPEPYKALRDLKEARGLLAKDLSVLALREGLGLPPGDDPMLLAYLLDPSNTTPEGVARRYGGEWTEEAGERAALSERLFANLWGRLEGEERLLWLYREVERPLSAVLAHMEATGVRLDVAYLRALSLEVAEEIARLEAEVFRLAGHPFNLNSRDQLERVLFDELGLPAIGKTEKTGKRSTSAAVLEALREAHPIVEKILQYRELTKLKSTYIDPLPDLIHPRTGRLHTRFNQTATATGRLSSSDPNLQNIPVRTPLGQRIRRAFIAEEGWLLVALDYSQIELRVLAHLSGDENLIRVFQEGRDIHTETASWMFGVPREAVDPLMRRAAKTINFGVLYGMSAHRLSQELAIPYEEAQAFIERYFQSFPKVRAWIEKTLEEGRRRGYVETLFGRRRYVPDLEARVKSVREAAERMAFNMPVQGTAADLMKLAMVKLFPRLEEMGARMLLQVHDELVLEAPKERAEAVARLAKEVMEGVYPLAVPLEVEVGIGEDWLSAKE

B1: ligand 10 (ssDNA)
DNA: TTCTCGGTTGGTCTCTGGCGGAGCGGATCAGACACGAAACATTGCGGACTTTTGTCTTGTGTATGATTCGCTTTTCCC
Kd (Taq DNA polymerase [1]): 0.03 nM

B2: Trnc.A-30 (30-mer) (ssDNA)
DNA: AAGACCAGACAATGTACAGTATTGGCCTGA
modifications: [none]
Kd (Taq DNA polymerase [2]): 0.6 nM

B3: ligand 15 (ssDNA)
DNA: TTCTCGGTTGGTCTCTGGCGGAGCATGCACAGCGACATTCTCAGCGTTTTGTCGTCTTGTGTATGATTCGCTTTTCCC
Kd (Taq DNA polymerase [3]): 0.0138 nM

B4: ligand 6 (TQH6) (ssDNA)
DNA: TTCTCGGTTGGTCTCTGGCGGAGCGAATCATACGAAGACATTCCAACGTTTTGTCTTGTGTATGATTCGCTTTTCCC
Kd (Taq DNA polymerase [4]): 0.0085 nM | IC50 (Taq DNA polymerase [5]): 30 nM

B5: ligand 18 (ssDNA)
DNA: TTCTCGGTTGGTCTCTGGCGGAGCATACACGACGTCATTCTAGCGTTTTGTCTTGTGTATGATTCGCTTTTCCC
Kd (Taq DNA polymerase [6]): > 1 nM

B6: ligand 19 (ssDNA)
DNA: TTCTCGGTTGGTCTCTGGCGGAGCGAATCGGACATCAAGGGTTCCAGCAGTGCTTCTTGTGTATGATTCGCTTTTCCC
Kd (Taq DNA polymerase [7]): 0.0112 nM

B7: ligand 22 (TQH22) / TZ3 (ssDNA)
DNA: TTCTCGGTTGGTCTCTGGCGGAGCATACACGACGTCATTCTAGCGTTTTGACGTCTTGTGTATGATTCGCTTTTCCC
IC50 (Taq DNA polymerase [8]): 37 nM | Kd (Taq DNA polymerase [9]): 0.014 nM

B8: ligand 28 (TQH28) (ssDNA)
DNA: TTCTCGGTTGGTCTCTGGCGGAGCAGGAGCAAGAATCATTCTTAGCGTTTTGATTCTTGTGTATGATTCGCTTTTCCC
Kd (Taq DNA polymerase [10]): 0.0135 nM | IC50 (Taq DNA polymerase [5]): 37 nM

B9: ligand 36 (Taq selection) (ssDNA)
DNA: TTCTCGGTTGGTCTCTGGCGGAGCAGAAGCAAGAATCATTCTTAGCGTTTTGATTCTTGTGTATGATTCGCTTTTCCC
Kd (Taq DNA polymerase [11]): 0.031 nM

B10: ligand 20 (ssDNA)
DNA: TTCTCGGTTGGTCTCTGGCGGAGCGATCAGACACGAAACATTGCGGACTTTTGTCTTGTGTATGATTCGCTTTTCCC
Kd (Taq DNA polymerase [12]): 0.105 nM
